Experimental data: patent EP0907730B1 (Zenyth Operations Pty Ltd, dated 2009)

T1: IL-4 receptor expressed by parental CTLL cells (UniProt P16382 26-810, limits assumed)
T1 construct: whole, on cells; Endogenous receptor of untransfected CTLL cells; also called IL-4 receptors expressed by CTLL cells; IL-4Rα
T1 sequence (looked up): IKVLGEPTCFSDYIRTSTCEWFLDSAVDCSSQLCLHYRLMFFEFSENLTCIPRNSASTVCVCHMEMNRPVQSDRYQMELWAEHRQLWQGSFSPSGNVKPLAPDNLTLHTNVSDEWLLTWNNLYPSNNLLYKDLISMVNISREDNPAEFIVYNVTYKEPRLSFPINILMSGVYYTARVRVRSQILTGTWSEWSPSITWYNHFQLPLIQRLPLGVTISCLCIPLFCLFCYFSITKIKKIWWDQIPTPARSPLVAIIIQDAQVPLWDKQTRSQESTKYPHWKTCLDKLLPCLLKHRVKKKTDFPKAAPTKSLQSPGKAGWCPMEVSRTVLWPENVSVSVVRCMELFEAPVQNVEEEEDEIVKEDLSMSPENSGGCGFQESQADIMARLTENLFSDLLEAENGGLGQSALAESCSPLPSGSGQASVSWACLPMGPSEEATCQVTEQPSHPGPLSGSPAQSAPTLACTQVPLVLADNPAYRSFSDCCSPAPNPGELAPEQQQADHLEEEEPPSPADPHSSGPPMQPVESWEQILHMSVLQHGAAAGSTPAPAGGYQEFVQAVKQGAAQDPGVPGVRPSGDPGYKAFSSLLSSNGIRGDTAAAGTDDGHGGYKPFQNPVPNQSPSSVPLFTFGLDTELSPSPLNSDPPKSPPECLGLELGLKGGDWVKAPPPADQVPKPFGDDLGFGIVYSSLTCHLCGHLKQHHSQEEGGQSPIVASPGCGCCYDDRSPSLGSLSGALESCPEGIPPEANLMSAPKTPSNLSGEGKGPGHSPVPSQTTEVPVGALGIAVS


Tests used:
[1] = target: T1, IL-4 receptor expressed by parental …; assay: 125I-IL-13 saturation binding on parental CTLL cells
[2] = target: T1, IL-4 receptor expressed by parental …; assay: 125I-IL-4 saturation binding (Scatchard) on parental CTLL cells

| Binder | binding result [1] | Kd [2] [nM] |
| --- | --- | --- |
| IL-13 (obtained commercially, R & D Systems) (ligand, UniProt P20109 19-131, looked up, radioiodinated (125I, iodine monochloride method) where used as tracer, also called interleukin-13) APGPVPRSVSLPLTLKELIEELSNITQDQTPLCNGSMVWSVDLAAGGFCVALDSLTNISNCNAIYRTQRILHGLCNRKAPTTVSSLPDTKIEVAHFITKLLSYTKQLFRHGPF | no binding | – |
| IL-4 (obtained commercially, R & D Systems) (ligand, UniProt P07750 23-140, looked up, radiolabelled with di-iodo-Bolton-Hunter reagent (125I) where used as tracer, also called interleukin-4) HGCDKNHLREIIGILNEVTGEGTPCTEMDVPNVLTATKNTTESELVCRASKVLRIFYLKHGKTPCLKKNSSVLMELQRLFRAFRCLDSSISCTMNESKSTSLKDFLESLKSIMQMDYS | – | ~0.66 |
